Consider one protein from publication PMC8778713, “Knockout of Arabidopsis thaliana VEP1, Encoding a PRISE (Progesterone 5β-Reductase/Iridoid Synthase-Like Enzyme), Leads to Metabolic Changes in Response to Exogenous Methyl Vinyl Ketone (MVK)” (Metabolites, 2021).

What all share (assay): purified protein
Format in all cases: biochemical, Arabidopsis thaliana

Substrate in data set [1]: C=CC(C)=O
The following applies: 0.2 mM NADPH; substrate 0.05 to 1.6 mM.

Substrate in data set [2]: CC(=O)[C@H]1CC[C@H]2[C@@H]3CCC4=CC(=O)CC[C@]4(C)[C@H]3CC[C@]12C
The following applies: 0.2 mM NADPH; substrate 0.05 to 1.6 mM.

Substrate in data set [3]: NC(=O)C1=CN([C@@H]2O[C@H](COP(=O)(O)OP(=O)(O)OC[C@H]3O[C@@H](n4cnc5c(N)ncnc54)[C@H](OP(=O)(O)O)[C@@H]3O)[C@@H](O)[C@H]2O)C=CC1
The following applies: progesterone as the substrate; varied: cofactor.

B1: rAtStR2 (A. thaliana steroid reductase 2) (Arabidopsis thaliana) (protein)
chain: MGSENGSLMRRNEVDENVALIFGVTGLVGREIVKTLLMSKPGWRIYGVARNPEINSMTKMYNFISCDLLNASETKQRLSPLQDIVSHVFWVTWSGEFPLDTDECCVQNKTMLMNALDAILPNAKRLKHFSLQTGMKHYVSLVEETMARGEGSSLYYYSEECPRKSSGKNFYYVLEDLLKEKITRSSVVWSVQRPGLLMGSSSRTLYNFMGSLCVYGAMCKYLNLPFVFGGTRECWEESYIDGSDSNLVAEQHIFAATSGKVREKGEAFNAINGVGFTWKEIWPEIGKKLGVQVNETTMFDEGFWFGREMVERKHVWDEIVVKEKLVRTEIEDLANWYFLDALFRCPFKLLGKREKVDRFGFKRKYRTLDSVLYWIDVMRDEKLIPL
notes: tag removal not mentioned
In the case of B1, the figures for the Km in “purified protein [1]”, in the data set “purified protein [2]” and in “purified protein [3]” were 157.5 µM, 64.7 µM and 41.0 µM, respectively. Moreover, the kcat in the data set “purified protein [1]” turned out to be 0.03 s⁻¹; in “purified protein [2]”, 0.15 s⁻¹; in “purified protein [3]”, 0.12 s⁻¹. For the same protein, the kcat/Km in the data set “purified protein [1]” amounted to 163 M⁻¹ s⁻¹; in the data set “purified protein [2]”, 2310 M⁻¹ s⁻¹; in the data set “purified protein [3]”, 2930 M⁻¹ s⁻¹.
